The term Kd denotes the constant that tells how readily two partners part at equilibrium. Lower therefore signals a tighter complex.

The test system of the data set is Roquin-1 (aa 2-441);NUFIP2 (aa 255-411) (mouse;human). Put plainly: EMSA. The note with it: 10 mM HEPES pH 7.5, 150 mM NaCl, 2 mM MgCl2, 4% glycerol, tRNA 30 ug/mL, 5 nM labeled RNA, 30 min at 25 °C; native 4% TBE PAGE.

“ICOS 3'-UTR tandem cis-element (nt 2183-2271)” returned a Kd of 11.3 nM.
The result for “Ox40 3'-UTR tandem element (nt 1064-1126)” reads 10.7 nM.
